Biological target: recombinant leucyl aminopeptidase of T. cruzi (rLAPTc), N-terminal His-tag (Trypanosoma cruzi)
Experiment: AUC + SEC; sedimentation velocity of rLAPTc at 170, 56 and 10 μM, 25 mM Tris pH 8.0, 150 mM NaCl, 10°C, 42,000 rpm; s-values combined with Stokes radii from calibrated SEC (SEC-AUC method)

- stoichiometry N (species eluting at 9 ml): 10.1 subunits
- stoichiometry N (species eluting at 10 ml): 5.6 subunits
Substance: recombinant leucyl aminopeptidase of T. cruzi (rLAPTc), N-terminal His-tag (enzyme)

Source: paper PMC3179936
